Reference: patent publication US20190276531A1 (SYMPHOGEN A S, published 2019)

T1: cynomolgus TIM-3 ECD fused C-terminally to human IgG1 Fc (made in-house, ExpiCHO) (cynomolgus monkey (Macaca …))
T1 construct: whole entry named
T1 chain: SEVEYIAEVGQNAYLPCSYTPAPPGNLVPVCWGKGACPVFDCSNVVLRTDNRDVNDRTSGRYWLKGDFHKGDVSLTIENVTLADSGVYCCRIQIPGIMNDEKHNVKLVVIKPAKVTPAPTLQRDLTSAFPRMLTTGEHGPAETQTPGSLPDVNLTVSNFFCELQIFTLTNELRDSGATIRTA


Experiments:
[1] = target: T2, human TIM-3 Fc fusion antigen (Sino Biologicals) (human, UniProt Q8TDQ0 22-202); experiment: ELISA; TIM-3 Fc fusion coated at 1 µg/ml, antibody titrated 2-fold from 1000 nM, HRP secondary
T2 construct: Bought; also called human TIM-3 ECD; not shown: Fc part of the bought fusion protein, not described

[2] = target: T3, monomeric human TIM-3 ECD antigen (Acro Biosystems) (human, UniProt Q8TDQ0 22-202); experiment: SPR (IBIS MX96); antibody captured on anti-human IgG Fc sensor, monomeric human TIM-3 ECD injected 2-100 nM; 1:1 Langmuir fit
T3 construct: Bought; also called soluble monovalent TIM-3 antigen (Acro Biosystems, China)

[3] = target: T4, R-PE-labeled human TIM-3-Fc chimera protein (R&D Systems) (human, UniProt Q8TDQ0 22-200, conjugated to R-phycoerythrin (R-PE), sites not stated); experiment: flow cytometry competition: R-PE-labelled TIM-3-Fc pre-mixed with titrated antibody, then binding to phosphatidylserine-positive apoptotic Jurkat cells (MFI); blocked ligand: phosphatidylserine; unit taken from the axis log(Concentration) µg/ml
T4 construct: Bought; also called TIM-3-PE; soluble TIM-3-Fc; Fc part of the bought chimera not given, not described

[4] = target: T1, cynomolgus TIM-3 ECD fused C-terminally …; experiment: SPR (IBIS MX96); TIM-3 ECD-Fc captured on anti-human IgG Fc sensor, Fab injected 1-100 nM; 1:1 Langmuir fit

Binder	EC50 [1] [nM]	also measured
antibody 20362 (antibody, V domains shown) VH: QVTLKESGPGLVKPSQTLSLTCTVSGGSISSGGHYWSWIRQHPGKGLEWIGYISYSGSTYYNPSLKSRLTISVDTSKNQFSLKLSSVTAADTAVYYCATAYYDILTGYPFDYWGQGTLVTVSS VL: EIVMTQSPATLSLSPGERATLSCRASQSVSSYLAWYQQKPGQAPRLLIYDASDRATGIPARFSGSGSGTDFTLTISSLEPEDFAVYYCQQRSNWPITFGQGTRLEIK	0.26	
antibody 19568 (antibody, V domains shown) VH: QMQLQESGPGLVKPSQTLSLTCTVSGGSISSVGYYWNWIRQHPGKGLEFIGYIYYSGSIYYNPSLKSRVTISVDTSKNQFSLKLSSVTAADTALYYCASVGIVGASYFEYWGQGTLVTVSS VL: EIVMTQSPATLSLSPGERATLSCRASQSVSSYLAWYQQKPGQAPRLLIYDASNRATGIPARFSGSGSGTDFTLTISSLEPEDFAVYYCQQRSNWPITFGQGTRLEIK	0.38	
Fab 20131 (Fab, V domains shown, not shown: cleavage site not s) VH: QVQLQQSGGGLVQPGGSLRLSCAASGFTLSSYAMSWVRQAPGKGLEWVSGISGSGGSTYNADSVKGRFTISRDNSKNTLFLQMNSLRAEDTAVYYCAKIFGSYYFDYWGQGTLVTVSS VL: not shown		Kd [4]: 22 nM
antibody 19324 (antibody, V domains shown) VH: QMQLQQSGGGLVQPGGSLRLSCAASGFTVSSYAMSWVRQALGKGLEWVSGISGSGGSTYYADSVKGRFTISRDNSKNTLYLQMNSLRAEDTAVYYCAKIVGATHFDYWGQGTLVTVSS VL: not shown	0.73	
antibody 20300 (antibody, V domains shown) VH: QVQLQQSGGGLVHPGGSLRLSCAASGFTVDTYAMTWVRQAPGKGLEWVSGISGSGGSTYYADSVKGRFTISRDNSKNTLYLQMNSLRDEDTAVYYCAKIVGVTHFDYWGQGTLVTVSS VL: not shown	1.13	

Continued by falling EC50 [1], values first:

EC50 [1] [nM]	Binder	also measured
0.22	antibody 20621 (antibody, V domains shown) VH: QVQLQQSGPGLVKPSQTLSLTCTVSGGSISSGGYYWSWIRQHPGKGLEWIGYISYSGSIYYNPSLKSRVTISVDTSKNQFSLKLSSVTATDTAVYYCATAYYDLLTGYPFDYWGQGTLVTVSS VL: EIVMTQSPATLSLSPGERATLSCRASQSVSSYLAWYQQKPGQAPRLLIYDASNRATGIPARFSGSGSGTDFTLTISSLEPEDFAVYYCQQRSNWPITFGQGTRLEIK	
0.2	antibody 19416 (antibody, V domains shown) VH: QVQLVESGPGLVKPSQTLSLTCTVSGGSINSGGYYWSWIRQHPGKGLEWIGYIYYSGSIYYNPSLRSRLTISVDTSKNQFSLKLSSVTAADTAVYYCATPYYYGSGSYGDYWGQGTLVTVSS VL: DIQMTQSPATLSLSPGERATLSCRASQSVNNYLAWYQQKPGQAPRLLIYDASNRATGIPARFSGSGSGTDFTLTISSLEPEDFAVYYCQQRSNWPITFGQGTRLEIK	
0.17	antibody 20185 (antibody, V domains shown) VH: QVQLVESGGGLVRPGGSLRLSCAVSGFTFSSYAMSWVRQAPGKGLEWVSGISGSGGSTYNADSVKGRFTISRDNSKNTLYLQMNSLRAEDTAVYYCAKIFGSYYFDYWGQGTLVTVSS VL: not shown	
0.125	antibody 15086.17145 (antibody, human IgG2, kappa) heavy: QVQLQESGPGLVKPSQTLSLTCTVSGGSISSGGYYWSWTRQHPGMGLEWIGYISYSGSIYYTPSLKSRLTISVDTSKNQFSLKLSSVTAADTAVYYCASLDSWGSNRDYWGQGTLVTVSSASTKGPSVFPLAPCSRSTSESTAALGCLVKDYFPEPVTVSWNSGALTSGVHTFPAVLQSSGLYSLSSVVTVPSSNFGTQTYTCNVDHKPSNTKVDKTVERKCCVECPPCPAPPVAGPSVFLFPPKPKDTLMISRTPEVTCVVVDVSHEDPEVQFNWYVDGVEVHNAKTKPREEQFNSTFRVVSVLTVVHQDWLNGKEYKCKVSNKGLPAPIEKTISKTKGQPREPQVYTLPPSREEMTKNQVSLTCLVKGFYPSDIAVEWESNGQPENNYKTTPPMLDSDGSFFLYSKLTVDKSRWQQGNVFSCSVMHEALHNHYTQKSLSLSPGK light: not shown	Kd [2]: 19 nM; IC50 [3]: 0.651 µg/mL
